Here are results for seven molecules from paper PMC7430664, “Yeast pentatricopeptide protein Dmr1 (Ccm1) binds a repetitive AU-rich motif in the small subunit mitochondrial ribosomal RNA”.

Data set [1] concerns the target T1, Dmr1-His6 (Saccharomyces cerevisiae, UniProt P48237 27-864).
T1 sequence: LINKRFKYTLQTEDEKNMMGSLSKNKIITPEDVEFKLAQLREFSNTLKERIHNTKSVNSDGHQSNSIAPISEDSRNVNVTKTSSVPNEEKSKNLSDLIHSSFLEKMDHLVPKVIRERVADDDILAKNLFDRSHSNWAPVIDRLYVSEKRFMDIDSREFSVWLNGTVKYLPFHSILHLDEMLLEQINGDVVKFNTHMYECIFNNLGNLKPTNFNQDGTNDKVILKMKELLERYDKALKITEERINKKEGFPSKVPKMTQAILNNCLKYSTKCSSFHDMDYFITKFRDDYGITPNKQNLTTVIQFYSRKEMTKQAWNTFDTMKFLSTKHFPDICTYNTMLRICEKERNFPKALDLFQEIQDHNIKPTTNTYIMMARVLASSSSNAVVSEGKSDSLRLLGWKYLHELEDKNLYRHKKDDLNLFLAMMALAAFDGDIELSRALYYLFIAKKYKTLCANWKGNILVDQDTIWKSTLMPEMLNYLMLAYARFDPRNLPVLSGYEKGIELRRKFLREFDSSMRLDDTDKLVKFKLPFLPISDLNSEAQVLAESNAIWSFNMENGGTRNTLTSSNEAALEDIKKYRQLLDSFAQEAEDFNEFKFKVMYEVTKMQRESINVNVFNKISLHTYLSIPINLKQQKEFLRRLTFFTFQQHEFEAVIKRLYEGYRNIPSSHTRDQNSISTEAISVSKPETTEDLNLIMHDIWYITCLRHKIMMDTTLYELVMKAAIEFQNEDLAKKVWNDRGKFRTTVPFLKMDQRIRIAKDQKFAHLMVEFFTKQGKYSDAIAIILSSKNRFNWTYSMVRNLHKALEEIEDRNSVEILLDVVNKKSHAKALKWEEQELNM
In words: footprinting; Dis3p 3'-5' exoribonuclease, 2 mM MgCl2; stop 3-5 nt downstream of (AUA)4AU; EMSA as in Puchta et al. 2010 (buffer not restated), 15 uL, up to 0.8 ug Dmr1p, BSA to constant protein, 0.2 ug tRNA; PNPase protection: 20 mM Tris-HCl pH 8.0. The conditions noted are these: protein: recombinant; tags: His6 (pET28a); label: 32P-UTP.

The target of data set [2] is T2, Dmr1p (Ccm1p), tag removed (Saccharomyces cerevisiae, UniProt P48237 27-864).
T2 sequence: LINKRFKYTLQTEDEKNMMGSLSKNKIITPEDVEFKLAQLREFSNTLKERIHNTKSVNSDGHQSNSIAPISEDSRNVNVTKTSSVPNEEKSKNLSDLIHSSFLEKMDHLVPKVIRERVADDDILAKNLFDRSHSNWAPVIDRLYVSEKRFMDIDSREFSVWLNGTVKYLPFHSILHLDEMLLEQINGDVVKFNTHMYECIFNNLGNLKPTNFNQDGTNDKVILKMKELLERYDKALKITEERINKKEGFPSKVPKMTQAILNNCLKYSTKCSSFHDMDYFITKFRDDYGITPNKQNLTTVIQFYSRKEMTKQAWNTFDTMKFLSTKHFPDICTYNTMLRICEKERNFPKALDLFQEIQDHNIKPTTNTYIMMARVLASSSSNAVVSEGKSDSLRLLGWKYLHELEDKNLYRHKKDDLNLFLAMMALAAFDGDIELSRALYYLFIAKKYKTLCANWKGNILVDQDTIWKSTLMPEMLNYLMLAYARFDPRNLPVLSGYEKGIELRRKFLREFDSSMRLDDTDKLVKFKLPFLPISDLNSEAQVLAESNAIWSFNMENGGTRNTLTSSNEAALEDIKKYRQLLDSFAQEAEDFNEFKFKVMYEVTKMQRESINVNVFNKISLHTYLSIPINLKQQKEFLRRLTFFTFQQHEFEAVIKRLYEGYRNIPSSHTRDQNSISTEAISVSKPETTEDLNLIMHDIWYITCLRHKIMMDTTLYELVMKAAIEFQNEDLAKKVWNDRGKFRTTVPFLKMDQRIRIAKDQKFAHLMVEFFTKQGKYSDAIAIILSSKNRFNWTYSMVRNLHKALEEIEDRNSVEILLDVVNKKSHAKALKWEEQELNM
In words: EMSA; 0.2 ug tRNA; EMSA as in Puchta et al. 2010 (buffer not restated), 15 uL, up to 0.8 ug Dmr1p, BSA to constant protein, 0.2 ug tRNA; PNPase protection: 20 mM Tris-HCl pH 8.0. The following applies: protein: recombinant; tags: none after TEV cleavage (from Dmr1-MBP-His6); label: 32P-UTP. On the technique in general: In EMSA bound probe runs differently from free probe, usually more slowly.

Data set [3] concerns the target T1, Dmr1-His6. In words: nuclease protection; PNPase, 2 mM MgCl2; not protected; EMSA as in Puchta et al. 2010 (buffer not restated), 15 uL, up to 0.8 ug Dmr1p, BSA to constant protein, 0.2 ug tRNA; PNPase protection: 20 mM Tris-HCl pH 8.0. The following applies: protein: recombinant; tags: His6 (pET28a); label: 32P-UTP.
The target of data set [4] is T1, Dmr1-His6. Nature of the data set: nuclease protection; PNPase, 2 mM MgCl2; complete protection, from 0.1 ug protein; EMSA as in Puchta et al. 2010 (buffer not restated), 15 uL, up to 0.8 ug Dmr1p, BSA to constant protein, 0.2 ug tRNA; PNPase protection: 20 mM Tris-HCl pH 8.0. The conditions noted are these: protein: recombinant; tags: His6 (pET28a); label: 32P-UTP.

The target of data set [5] is T2, Dmr1p (Ccm1p), tag removed. Nature of the data set: EMSA; 0.2 ug tRNA; strong; EMSA as in Puchta et al. 2010 (buffer not restated), 15 uL, up to 0.8 ug Dmr1p, BSA to constant protein, 0.2 ug tRNA; PNPase protection: 20 mM Tris-HCl pH 8.0. The conditions noted are these: protein: recombinant; tags: none after TEV cleavage (from Dmr1-MBP-His6); label: 32P-UTP.
Data set [6] addresses T1, Dmr1-His6. Nature of the data set: nuclease protection; Terminator 5'-3' exonuclease, 2 mM MgCl2; partial; text calls it the 24 nt fragment, legend 15_14; EMSA as in Puchta et al. 2010 (buffer not restated), 15 uL, up to 0.8 ug Dmr1p, BSA to constant protein, 0.2 ug tRNA; PNPase protection: 20 mM Tris-HCl pH 8.0. The following applies: protein: recombinant; tags: His6 (pET28a); label: 32P-UTP.

Consider GGAAAGAUGAAAUAAUAAUAAUAAUUAUAAGACUAAU (ssRNA) [15_35], for which the binding result with Dmr1-His6 [1] is “binds”.
For GGAAAUAAUAAUAAUAAUUAUAAGAC (ssRNA) [15_24], the binding result in data set [2] is listed as “binds”.
Take GGAUAAUAAUAAUAAU (ssRNA) [15_14]: in data set [2], the binding result is reported as “binds”.
As to GGAAAAGGAUAUAUAUAUAAUAUAUA (ssRNA) [N_24], the binding result (with Dmr1-His6 [3]; in data set [2]) was “no binding” throughout.
Take GGUUAUAAUAAUAAUAAUAAUAAUAU (ssRNA) [20_24]: the binding result (in the data set with Dmr1-His6 [4]; in data set [5]) was “binds” each time.
GGAUAAUAAUAAUAAU (ssRNA, 5' monophosphate (polyphosphatase treated)) [15_14 5'-monophosphate]: the binding result with Dmr1-His6 [6] was “binds”.
As to GGUAUAUAUAUAAUAU (ssRNA) [N_14], the binding result in data set [2] is on record as “no binding”.
